From doi:10.1101/2020.01.19.911941 (bioRxiv, 2020)
Each block holds one binder with its values, some of them ahead of it.

Assays:
[1] = biological target: sPD-1 V1 Fc (human) (UniProt Q15116); test: SPR
[2] = biological target: mouse PD-L1 in wild-type parental MC38 cells (mouse (endogenous in MC38), UniProt Q9EP73 19-290); test: flow cytometry on cells
mouse PD-L1 in wild-type parental MC38 cells, sequence (Q9EP73 19-290): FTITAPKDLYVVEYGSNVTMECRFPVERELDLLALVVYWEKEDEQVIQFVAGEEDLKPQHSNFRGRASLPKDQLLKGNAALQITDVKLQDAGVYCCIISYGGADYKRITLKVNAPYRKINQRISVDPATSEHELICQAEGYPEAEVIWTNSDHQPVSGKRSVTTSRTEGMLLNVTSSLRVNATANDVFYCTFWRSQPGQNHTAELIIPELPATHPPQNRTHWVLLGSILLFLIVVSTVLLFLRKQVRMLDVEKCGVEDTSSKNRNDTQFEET

fold improvement in binding affinity over wild type sPD-1 [1]: 200 fold
B1: human PD-L2 (#10292-H08H, SinoBiological) (ligand)
chain: LFTVTVPKELYIIEHGSNVTLECNFDTGSHVNLGAITASLQKVENDTSPHRERATLLEEQLPLGKASFHIPQVQVRDEGQYQCIIIYGVAWDYKYLTLKVKASYRKINTHILKVPETDEVELTCQATGYPLAEVSWPNVSVPANTSHSRTPEGLYQVTSVLRLKPPPGRNFSCVFWNTHVRELTLASIDLQSQMEPRTHPT

fold increase in binding signal over wild-type sPD-1 [2]: ~4 fold
B2: sPD-1 V2 Fc (Fc fusion)
chain: LDSPDRPWNPPTFSPALLVVTEGDNATFTCSFSNTSEGFVLNWYRMSPSNQTDKLAAFPEDRGQLGQDCRFRVTQLPNGRDFHMSVVRARRNDSGTYLCSAIVLAPKIQIKESLRVELRVTERRAEVPTAHPSPSPRPAGQFQTLV
